In the supplement of paper PMC9170038:

Test system: MS2 coat protein
Assay: apparent KD of MS2 coat protein; higher = weaker reporter binding
Conditions: Eterna round: R107
Experimental: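 RNA-MaP round R107: designed RNA switches with theophylline, tryptophan, arginine or FMN aptamers are transcribed on-chip within common flanks. They are titrated with SNAP-549-labelled MS2 coat protein in RNA-MaP buffer (100 mM Tris pH 7.5, 80 mM KCl, 4 mM MgCl2), without ligand or with the indicated ligand. Median apparent KD per design.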

[1] = input ligand: theophylline 20 uM
[2] = input ligand: theophylline 2 mM
[3] = input ligand: tryptophan 2.4 mM

Sequence | apparent KD of MS2 coat protein (input ligand: arginine 13.2 mM) | apparent KD of MS2 coat protein (input ligand: none) | apparent KD of MS2 coat protein [1] | apparent KD of MS2 coat protein [2] | apparent KD of MS2 coat protein [3]
ACCUGUACGAAAAGUGCAGGACACGAAUAACGAGGACCGGUACGGCCGCCACUCGGAAAAUAACCUGAGGAUCACCCUGGUCGUG [TrypAS 7 #AlternativeMS2 #Zipper #StaticStem] | 29.5 nM | 31.6 nM | 37.5 nM | 40.1 nM | 33.9 nM
GAUUAAACAUGAGGAUCACCCAUGUAUAUACGAGGACCGGUACGGCCGCCACUCGUAAACGAGUAUCCUCGAAUAAACAUGAUAA [AK 2.1 SS Trypt (A)] | 44 nM |  | 113 nM | 182 nM | 
GGGUACAUCGCGGCCGCCACUUGUGUAAAUACAUGAGGAUCACCCAUGUCGAUGGAGACAUCGGCAAGGACCGGGUGAUGUACCG | 107 nM | 130 nM | 172 nM | 146 nM | 15.2 nM
GAGCGCAGUUUACAACAUACUAACACAGAUACCAGAAAUUUUAUGUUCCCUUGGCAGCUGACAACAUGAGGAUCACCCAUGUGCU [theeternabot_exclusion_MS2_Theo_A_27] | 17.5 nM |  | 21.2 nM |  | 15.7 nM
CGUUGGUGUGGAGACAUAUUGAUGACUGAAGGAGCGGGAAUAAACCCAGGUAGGUCGCAGAGAUCCACAUGAGGAUCACCCAUGU [!0.R] | 26.3 nM | 73.1 nM | 74.9 nM | 154 nM | 49.5 nM
AACAUGAGGAUCACCCAUGUCGGGCCGGUGCGAGGACCGGUACGGCCGCCACUCGAGACAUGAGGAUCACCCAUGUUGUGCGUGA [Exclusion Tryptophan A GF23] | 52.6 nM | 162 nM | 195 nM | 221 nM | 138 nM
GCAUCCUAGUCGGCCGCCACUGCACGAUCAGUGGCAGAUCGUCAACAUGAGGAUCACCCAUGUAGCAGGACCGGGACUAGGAUGC [(Trp1)-(TM)''-(TM)'-(Ms2)-(Trp2)_Design3] | 18.5 nM |  | 21.9 nM | 20.9 nM | 
AAAAUAAAUAAAACACGUAACAUGAAGGAUACCAGCCAGAAAACUGGCCCUUGGCAGCCUCUACAUGAGGAUCACCCAUGUCGUG [Mat - Same State Theophlline A - Mod of Eli - D16] | 156 nM |  | 114 nM |  | 293 nM
CAAUUUCGAAUAGAUACCAGCUGUCAUAAACACAUGAGGAUCACCCAUGUGCUUCUCGUCAGCCCUUGGCAGCUAUAACUAGAGC [theeternabot_sameState_MS2_Theo_B_40] | 15.4 nM |  | 16.5 nM |  | 16.1 nM
UGUAUGUGAUUUGAUACCAGACCAGCGGGUGUUACUUGAGGAACACCCAAGUAGGUUUGGGUCCCUUGGCAGCAAAUCGCAUACU [SS Theo B #24 Ms9] | 452 nM | 39.2 nM | 309 nM | 1410 nM | 79 nM
UGUAUGGACUGAAGGAGCGCAUCAAAAUAACAUGAGGAUCACCCAUGUAAGGCGAAAGCCGUGCAGGUAGGUCGCAGUCCAUACU [ArgBX 3] | 14.9 nM | 15.6 nM | 17.3 nM | 18.8 nM | 15.3 nM
AUCUCAUAGAGUGAUACCAGACUACAUGAGGAUCACCCAUGUUACAUUUAAAUAUCAUUUGUCCCUUGGCAGCACAUUAAGUACA [JR_Nu_ExcTheophyB_Sub019] | 25.6 nM |  | 33.2 nM |  | 23.4 nM
AGGAACAUGAGGAUCACCCAUGUAAGCGAUACCAGUGAUAUGUUGCGCCCUUGGCAGCGCAAGUGUGUGUGAAAGAUGUAAGAUU [Eclusion - Theophylline A / A] | 14.6 nM |  | 29.3 nM |  | 16.7 nM
ACCUACACGGAGACGUGUAGGAGUAAUGAUACCAGCAUGGAGACAUGCCCUUGGCAGCGUUACAUGAGGAUCACCCAUGUAGGUU [ETHA #4] | 43.3 nM | 43.6 nM | 59 nM | 78.8 nM | 43.1 nM
GAUAUAUAACGAAGGAGCGGCCCUUGAUCCUCAUGAGACAUGAGGAUCACCCAUGUCUCGGGCCAGGUAGGUCGCGUUAUAUAUC [Astros-omei-mod] | 26.6 nM | 21.5 nM | 31.4 nM | 27.9 nM | 24.4 nM
UCAUUUGAGUGAGAUGUAAGGUAUCAUGAUACCAGUAGAUAAUUAUACCCUUGGCAGCAUAACAUGAGGAUCACCCAUGUACAUG [Ac] | 20.1 nM |  | 27 nM |  | 19.6 nM
AAAAUAUACGGAAGGAGCGUGUAAGAUUAAGAACAUGAGGAUCACCCAUGUUUUAAGGGAACACAGGUAGGUCGCCGUAUAUAAA [11.N] | 12.9 nM | 11.9 nM | 11.6 nM | 10.3 nM | 11.8 nM
GGGUACAUCGCGGCCGCCACUGGUGUAAAUACAUGAGGAUCACCCAUGUCGAUGGAGACAUCGGGUAGGACCGGGUGAUGUACCG | 19.8 nM | 21.9 nM | 37.3 nM | 30.2 nM | 24.3 nM
CAUCGGGCGGUAAAUGGCGGGUACGGUGAUACCAGUUUUUGAUUUAACCCUUGGCAGCACUAUACAUGAGGAUCACCCAUGUAAU [theeternabot_exclusion_MS2_Theo_A_15] | 17.7 nM |  | 23.2 nM |  | 19.5 nM

Sequence | apparent KD of MS2 coat protein (input ligand: arginine 13.2 mM) | apparent KD of MS2 coat protein (input ligand: none) | apparent KD of MS2 coat protein [1] | apparent KD of MS2 coat protein [2] | apparent KD of MS2 coat protein [3]
GCCCUUGGCAGCGAUACCAGCCAAAAUUAAAAUAAACCUCUACAUGAGGAUCACCCAUGUGGCCCUUGGCAGCGAUACCAGCAAA [#ReversedDoubbleAptamer 1] | 33.7 nM |  | 49.7 nM |  | 43.5 nM
ACAUGAGGAUCACCCAUGUACAUGAGGGAAGGAGCGGUACAUGUACCAGGUAGGUCGCCCAACAGCAUCAGCCAUGUACAUCAGC [ggvmullin] | 31.4 nM | 76.1 nM | 102 nM | 90.4 nM | 69 nM
ACAUGAGGAUCACCCAUGUGGAGCAGGGUACGAGGACCGGUACGGCCGCCACUCGAGCGUUAUGACGAGUGAAUGGCAACGAUGU [whbob_X-Trypto_A_V1.0] | 9.93 nM | 10.5 nM | 15.9 nM | 12.5 nM | 12.1 nM
UCAGUGCAAGGAAGGAGCGGGUACAUGAGGAUCACCCAUGUGCAAGUGGUGAGUGUUCGUGCCCAGGUAGGUCGCCUAGCCUGGU [XArg-B19] | 36.4 nM | 192 nM | 122 nM | 348 nM | 54.5 nM
AAUCGUAAGGCGGCCGCCACUACACAUGAGGAUCACCCAUGUCUCGCGGGCUUGCGUUGGGAUUGUAGGACCGGGCCAGUAAUAA [Exclusion - Tryptophan B (Freestyle 12)] | 19.3 nM | 26.4 nM | 37.9 nM | 23.5 nM | 21.3 nM
UAGCGAUAAUCUGAUACCAGACGUGUGCUCUCCUCAGACAUGAGGAUCACCCAUGUAUGCGUCCCUUGGCAGCAGAGUGAGGAGA [Theo B Ex t5] | 19.6 nM | 19.6 nM | 26.8 nM | 115 nM | 18.6 nM
CGAAUACGAAUUGAUACCAGCAUGUUAACAUGAGGAUCACCCAUGUUAAGGAUAACAUAAUGCCCUUGGCAGCAACGUAAAUUCG [Ab] | 16.7 nM |  | 17.7 nM |  | 14.4 nM
ACAUGAGGAUCACCCAUGUACAUCACCCGACGAGGACCGGUACGGCCGCCACUCGGGUAUAUAUAUACAUCGGGUGGUUUUGCAU [a15jan] | 40.7 nM |  | 88.4 nM | 40 nM | 
UUUUUCGCGGGUGAUACCAGCAAAGUUGUACUGGUCUGGUACAUGAGGAUCACCCAUGUUUGCCCUUGGCAGCGCUCGGGAGAAG [#22 Exclusion-TheophyllineB] | 33.2 nM | 21 nM | 39.2 nM | 32.7 nM | 23.5 nM
GGGUACAUCGCGGCCGCCACUUUUGUAAAUACAUGAGGAUCACCCAUGUCGAUGGAGACAUCGGUGAGGACCGGGUGAUGUACCG | 196 nM | 624 nM | 523 nM | 721 nM | 295 nM
UGGUACUAGGCGGCCGCCACUGGGAGAUACAUGAGGAUCACCCAUGUUUAAUGCCGAGAGGCAACUAGGACCGGGCCUAGUACAU | 63.6 nM |  | 133 nM | 127 nM | 
UAAUGCAGGUCGGCCGCCACUACAACAUGAGGAUCACCCAUGUACAUGUUGUAGUACGGUAUGAGUAGGACCGGGACCUGCAUAA [Trp-Ms2-M'-T'-(MT)'_Design1] | 213 nM | 299 nM | 154 nM | 594 nM | 787 nM
AGAUGAGUCACGGCCGCCACUCACUACAGGUUCACCCUUGGUUAACAUGAGGAUCACCCAUGUGGGAGGACCGGGUGAUGAGCAU [XTryp B #4] | 18.5 nM |  | 32.7 nM | 25.6 nM | 
UGUAUGUGAUCUGAUACCAGAGUGACGCGAAAGCGACCUGAGGAUCACCCUGGUAAAUAACUCCCUUGGCAGCAGAUCGCAUACU | 43.8 nM | 45 nM | 36.6 nM | 17.8 nM | 48.3 nM
AAACAUGAGGAUCACCCAUGUAAAGUUGAAGGAGCGACCAGAGGGUCAGGUAGGUCGCAACACAUGAGGAUCACCCAUGUAUCGA [DOUBLE!!! :-D #5] | 41.3 nM | 96.5 nM | 88.5 nM | 91.6 nM | 72.7 nM
GUAUGGAAACAUACUAUGGUAUCGUGAGAUACCAGUACAGAAAUGUACCCUUGGCAGCUCGCGCAUACAUGAGGAUCACCCAUGU [Ex Theophylline A 10] | 16.4 nM |  | 25 nM |  | 19.5 nM
GGGCGCGUGGACUGGCGUGCUCCGCUCCGUCGAGGACCGGUACGGCCGCCACUCGACAUGAGGAUCACCCAUGUGUGCGCUCGCG [#1 Exclusion - Tryptophan A Attempt #18 (HarryS)] | 14.5 nM | 21 nM | 194 nM | 40.4 nM | 7.36 nM
UUAUGCAGGUCGGCCGCCACUACACACAUGAGGAUCACCCAUGUAGUUACUGGGUGAAGUGGCAGUAGGACCGGGACCCGCACAU [Brourdmod21] | 151 nM | 367 nM | 388 nM | 612 nM | 383 nM
